Laboratory results: article PMC6019071

Experiments:
[1] = target: core CoREST complex LSD1/HDAC1/CoREST1 (LHC) (UniProt O60341); test: enzyme inhibition (fluorogenic HDAC deacetylation assay); LHC (1 nM) pretreated 30 min on ice with inhibitor in 50 mM HEPES 7.5, 100 mM KCl, 100 uM InsP6, 0.2 mg/mL BSA; 50 uM fluorogenic peptide substrate, 37 C, 15 min; Ki = IC50/([S]/Km + 1), competitive model
[2] = target: core CoREST complex LSD1/HDAC1/CoREST1 (LHC) (UniProt O60341); test: enzyme inhibition (fluorogenic HDAC deacetylation assay); Dixon plot of LHC inhibition by H3K14Hd-modified nucleosomes versus peptide substrate

A fold lower Ki than the corresponding Hd nucleosome [1] of 30 fold was found for “semisynthetic histone H3 H3K4me2K14Hd (from UniProt P84233 2-136) (natural protein)” in this work.
A Ki [1] of 60 nM was found for “H3K9Hd containing nucleosome (146 bp mononucleosome with semisynthetic H3K4me2K9Hd) (complex)” in this work.
A Ki [1] of 40 nM and a Ki [2] of 35 nM were found for “H3K14Hd containing nucleosome (146 bp mononucleosome with semisynthetic H3K4me2K14Hd) (complex)” in this work.
A fold lower Ki than the corresponding Hd nucleosome [1] of 30 fold was found for “H3K4me2K14Hd(1-34) synthetic H3 peptide (from UniProt P84233 2-35)” in this work.
A fold lower Ki than the corresponding Hd nucleosome [1] of 30 fold was found for “H3K4me2K9Hd(1-34) synthetic H3 peptide (from UniProt P84233 2-35)” in this work.
